Experimental data from article PMC314469, “Protein Interaction Networks by Proteome Peptide Scanning” (PLoS Biology, 2004).

Columns and labels:
Test in all cases: SPOT array
[1] = molecular target: T1, Boi1 SH3 (BOI1_YEAST), P38041
T1 chain: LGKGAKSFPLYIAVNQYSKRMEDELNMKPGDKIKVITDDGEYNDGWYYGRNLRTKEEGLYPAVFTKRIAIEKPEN

[2] = molecular target: T2, Yhr016c SH3 (YSC84_YEAST), P32793
T2 chain: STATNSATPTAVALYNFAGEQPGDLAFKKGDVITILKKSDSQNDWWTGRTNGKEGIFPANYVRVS

[3] = molecular target: T3, Yfr024 SH3 (LSB3_YEAST), P43603
T3 chain: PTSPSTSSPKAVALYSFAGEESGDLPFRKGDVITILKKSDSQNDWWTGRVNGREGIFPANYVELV

[4] = molecular target: Sho1 SH3 (SHO1_YEAST), P40073
[5] = molecular target: T4, Rvs167 SH3 (RV167_YEAST), P39743
T4 chain: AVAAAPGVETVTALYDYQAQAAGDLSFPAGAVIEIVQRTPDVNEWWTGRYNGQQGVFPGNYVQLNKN

[6] = molecular target: T5, Boi2 SH3 (BOI2_YEAST), P39969
T5 chain: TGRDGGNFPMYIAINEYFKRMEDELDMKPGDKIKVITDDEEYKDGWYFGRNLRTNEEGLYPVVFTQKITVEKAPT

[7] = molecular target: T6, Myo5 SH3 (MYO5_YEAST), Q04439
T6 chain: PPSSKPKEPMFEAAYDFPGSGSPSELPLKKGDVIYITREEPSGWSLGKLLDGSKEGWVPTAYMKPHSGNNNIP

Sho1 SH3 (SHO1_YEAST), P40073, sequence (P40073 295-366): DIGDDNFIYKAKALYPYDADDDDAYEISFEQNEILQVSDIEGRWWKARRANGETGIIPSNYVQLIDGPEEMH

APVVKSEPSLPRMR [YJL083W 57-70]
normalised SPOT signal, Boehringer light units (BLU); mean over the file's lines of this peptide [1]: 1950
normalised SPOT signal, Boehringer light units (BLU); mean over the file's lines of this peptide [2]: 63.5
normalised SPOT signal, Boehringer light units (BLU); mean over the file's lines of this peptide [3]: 512
normalised SPOT signal, Boehringer light units (BLU); mean over the file's lines of this peptide [4]: 49.7
normalised SPOT signal, Boehringer light units (BLU); mean over the file's lines of this peptide [5]: 70.8
normalised SPOT signal, Boehringer light units (BLU); mean over the file's lines of this peptide [6]: 17.7
normalised SPOT signal, Boehringer light units (BLU); mean over the file's lines of this peptide [7]: 241

ALLRRTIPKRPFYH [YDL142C 12-25]
normalised SPOT signal, Boehringer light units (BLU); mean over the file's lines of this peptide [1]: 4780
normalised SPOT signal, Boehringer light units (BLU); mean over the file's lines of this peptide [2]: 972
normalised SPOT signal, Boehringer light units (BLU); mean over the file's lines of this peptide [3]: 7070
normalised SPOT signal, Boehringer light units (BLU); mean over the file's lines of this peptide [4]: 34.4
normalised SPOT signal, Boehringer light units (BLU); mean over the file's lines of this peptide [5]: 1850
normalised SPOT signal, Boehringer light units (BLU); mean over the file's lines of this peptide [6]: 253
normalised SPOT signal, Boehringer light units (BLU); mean over the file's lines of this peptide [7]: 914

AKVNKSPPDHPYIQ [YHR094C 277-290]
normalised SPOT signal, Boehringer light units (BLU); mean over the file's lines of this peptide [1]: 426
normalised SPOT signal, Boehringer light units (BLU); mean over the file's lines of this peptide [2]: 18.6
normalised SPOT signal, Boehringer light units (BLU); mean over the file's lines of this peptide [3]: 39.4
normalised SPOT signal, Boehringer light units (BLU); mean over the file's lines of this peptide [4]: 32.9
normalised SPOT signal, Boehringer light units (BLU); mean over the file's lines of this peptide [5]: 53
normalised SPOT signal, Boehringer light units (BLU); mean over the file's lines of this peptide [6]: 20.2
normalised SPOT signal, Boehringer light units (BLU); mean over the file's lines of this peptide [7]: 164

AKSNKVSPEDPAVQ [YLR081W 283-296]
normalised SPOT signal, Boehringer light units (BLU); mean over the file's lines of this peptide [1]: 571
normalised SPOT signal, Boehringer light units (BLU); mean over the file's lines of this peptide [2]: 12.5
normalised SPOT signal, Boehringer light units (BLU); mean over the file's lines of this peptide [3]: 142
normalised SPOT signal, Boehringer light units (BLU); mean over the file's lines of this peptide [4]: 44.1
normalised SPOT signal, Boehringer light units (BLU); mean over the file's lines of this peptide [5]: 159
normalised SPOT signal, Boehringer light units (BLU); mean over the file's lines of this peptide [6]: 24.3
normalised SPOT signal, Boehringer light units (BLU); mean over the file's lines of this peptide [7]: 371

ALLIKTVPGFPLLE [YGR061C 138-151]
normalised SPOT signal, Boehringer light units (BLU); mean over the file's lines of this peptide [1]: 78.5
normalised SPOT signal, Boehringer light units (BLU); mean over the file's lines of this peptide [2]: 7.6
normalised SPOT signal, Boehringer light units (BLU); mean over the file's lines of this peptide [3]: 39.7
normalised SPOT signal, Boehringer light units (BLU); mean over the file's lines of this peptide [4]: 22.1
normalised SPOT signal, Boehringer light units (BLU); mean over the file's lines of this peptide [5]: 11.8
normalised SPOT signal, Boehringer light units (BLU); mean over the file's lines of this peptide [6]: 48
normalised SPOT signal, Boehringer light units (BLU); mean over the file's lines of this peptide [7]: 144

AKTNKNVPVLPTPG [YDL195W 766-779]
normalised SPOT signal, Boehringer light units (BLU); mean over the file's lines of this peptide [1]: 1420
normalised SPOT signal, Boehringer light units (BLU); mean over the file's lines of this peptide [2]: 30.3
normalised SPOT signal, Boehringer light units (BLU); mean over the file's lines of this peptide [3]: 97.7
normalised SPOT signal, Boehringer light units (BLU); mean over the file's lines of this peptide [4]: 91.3
normalised SPOT signal, Boehringer light units (BLU); mean over the file's lines of this peptide [5]: 136
normalised SPOT signal, Boehringer light units (BLU); mean over the file's lines of this peptide [6]: 70.7
normalised SPOT signal, Boehringer light units (BLU); mean over the file's lines of this peptide [7]: 130

ALEERFDPKSPTKR [YMR129W 520-533]
normalised SPOT signal, Boehringer light units (BLU); mean over the file's lines of this peptide [1]: 948
normalised SPOT signal, Boehringer light units (BLU); mean over the file's lines of this peptide [2]: 63.6
normalised SPOT signal, Boehringer light units (BLU); mean over the file's lines of this peptide [3]: 4.1
normalised SPOT signal, Boehringer light units (BLU); mean over the file's lines of this peptide [4]: 33.3
normalised SPOT signal, Boehringer light units (BLU); mean over the file's lines of this peptide [5]: 56.3
normalised SPOT signal, Boehringer light units (BLU); mean over the file's lines of this peptide [6]: 13.4
normalised SPOT signal, Boehringer light units (BLU); mean over the file's lines of this peptide [7]: 108

ALSTKGYPHEPPLL [YGR172C 61-74]
normalised SPOT signal, Boehringer light units (BLU); mean over the file's lines of this peptide [1]: 193
normalised SPOT signal, Boehringer light units (BLU); mean over the file's lines of this peptide [2]: 15.2
normalised SPOT signal, Boehringer light units (BLU); mean over the file's lines of this peptide [3]: 26.8
normalised SPOT signal, Boehringer light units (BLU); mean over the file's lines of this peptide [4]: 35.4
normalised SPOT signal, Boehringer light units (BLU); mean over the file's lines of this peptide [5]: 63.8
normalised SPOT signal, Boehringer light units (BLU); mean over the file's lines of this peptide [6]: 12.6
normalised SPOT signal, Boehringer light units (BLU); mean over the file's lines of this peptide [7]: 139

ALWAKFFPEKPLNI [YGR024C 111-124]
normalised SPOT signal, Boehringer light units (BLU); mean over the file's lines of this peptide [1]: 103
normalised SPOT signal, Boehringer light units (BLU); mean over the file's lines of this peptide [2]: 75.9
normalised SPOT signal, Boehringer light units (BLU); mean over the file's lines of this peptide [3]: 405
normalised SPOT signal, Boehringer light units (BLU); mean over the file's lines of this peptide [4]: 115
normalised SPOT signal, Boehringer light units (BLU); mean over the file's lines of this peptide [5]: 50.7
normalised SPOT signal, Boehringer light units (BLU); mean over the file's lines of this peptide [6]: 18.8
normalised SPOT signal, Boehringer light units (BLU); mean over the file's lines of this peptide [7]: 154

AMESRVAPEIPGLI [YGL130W 4-17]
normalised SPOT signal, Boehringer light units (BLU); mean over the file's lines of this peptide [1]: 82.6
normalised SPOT signal, Boehringer light units (BLU); mean over the file's lines of this peptide [2]: 45.4
normalised SPOT signal, Boehringer light units (BLU); mean over the file's lines of this peptide [3]: 517
normalised SPOT signal, Boehringer light units (BLU); mean over the file's lines of this peptide [4]: 47.7
normalised SPOT signal, Boehringer light units (BLU); mean over the file's lines of this peptide [5]: 60.5
normalised SPOT signal, Boehringer light units (BLU); mean over the file's lines of this peptide [6]: 0
normalised SPOT signal, Boehringer light units (BLU); mean over the file's lines of this peptide [7]: 426

APPPKEEPAAPTST [YGR162W 923-936]
normalised SPOT signal, Boehringer light units (BLU); mean over the file's lines of this peptide [1]: 76.3
normalised SPOT signal, Boehringer light units (BLU); mean over the file's lines of this peptide [2]: 0.6
normalised SPOT signal, Boehringer light units (BLU); mean over the file's lines of this peptide [3]: 5.8
normalised SPOT signal, Boehringer light units (BLU); mean over the file's lines of this peptide [4]: 37.7
normalised SPOT signal, Boehringer light units (BLU); mean over the file's lines of this peptide [5]: 15.9
normalised SPOT signal, Boehringer light units (BLU); mean over the file's lines of this peptide [6]: 3.5
normalised SPOT signal, Boehringer light units (BLU); mean over the file's lines of this peptide [7]: 117

AKLHRTKPVKPLSK [YLR430W 1004-1017]
normalised SPOT signal, Boehringer light units (BLU); mean over the file's lines of this peptide [1]: 382
normalised SPOT signal, Boehringer light units (BLU); mean over the file's lines of this peptide [2]: 42.3
normalised SPOT signal, Boehringer light units (BLU); mean over the file's lines of this peptide [3]: 162
normalised SPOT signal, Boehringer light units (BLU); mean over the file's lines of this peptide [4]: 109
normalised SPOT signal, Boehringer light units (BLU); mean over the file's lines of this peptide [5]: 34.5
normalised SPOT signal, Boehringer light units (BLU); mean over the file's lines of this peptide [6]: 4.6
normalised SPOT signal, Boehringer light units (BLU); mean over the file's lines of this peptide [7]: 502

AKLRKFHPPEPYKG [YHR147C 183-196]
normalised SPOT signal, Boehringer light units (BLU); mean over the file's lines of this peptide [1]: 274
normalised SPOT signal, Boehringer light units (BLU); mean over the file's lines of this peptide [2]: 32.7
normalised SPOT signal, Boehringer light units (BLU); mean over the file's lines of this peptide [3]: 128
normalised SPOT signal, Boehringer light units (BLU); mean over the file's lines of this peptide [4]: 133
normalised SPOT signal, Boehringer light units (BLU); mean over the file's lines of this peptide [5]: 48.5
normalised SPOT signal, Boehringer light units (BLU); mean over the file's lines of this peptide [6]: 34.8
normalised SPOT signal, Boehringer light units (BLU); mean over the file's lines of this peptide [7]: 119
